Assay results as given in patent publication US7442519B2, “KCNQ2-15 potassium channel” (priority 2002, dated 2008).

T1: PP2A/Bγ (Homo sapiens, UniProt Q9Y2T4, E66D/G293D/R253P)
T1 construct: The full-length coding region of the PPP2R2C gene, which encodes the PP2A/Bγ subunit; expressed in transfected cells; host or cells: Saccharomyces cerevisiae (AH109 / Y184 mating partners)
T1 sequence (Q9Y2T4 1-447 E66D/R253P/G293D): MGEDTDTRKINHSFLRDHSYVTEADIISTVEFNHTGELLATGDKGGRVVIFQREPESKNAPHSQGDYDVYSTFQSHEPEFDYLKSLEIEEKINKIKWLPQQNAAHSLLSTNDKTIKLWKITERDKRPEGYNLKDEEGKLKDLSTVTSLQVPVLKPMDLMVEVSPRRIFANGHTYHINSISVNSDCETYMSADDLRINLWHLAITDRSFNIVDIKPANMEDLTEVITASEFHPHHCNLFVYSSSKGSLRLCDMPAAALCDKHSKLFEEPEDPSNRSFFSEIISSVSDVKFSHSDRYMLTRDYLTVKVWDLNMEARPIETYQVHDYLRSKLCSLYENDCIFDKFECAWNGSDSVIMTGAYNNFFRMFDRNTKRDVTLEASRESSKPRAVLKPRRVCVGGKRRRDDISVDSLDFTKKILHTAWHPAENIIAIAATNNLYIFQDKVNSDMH

B1: GST-2E11: fusion protein between a KCNQ2-15b polypeptide comprising exons 13, 14 and 15b and GST (protein)
chain: SSQKVSLKDRVFSSPRGVAAKGKGSPQAQTVRRSPSADQSLEDSPSKVPKSWSFGDRSRARQAFRIKGAASRQNSEEASLPGEDIVDDKSCPCEFVTEDLTPGLKVSIRAVCVMRFLVSKRKFKESLRPYDVMDVIEQYSAGHLDMLSRIKSLQSRQEPRLPVQQGTRTGWASGTKPTVAHGGSAGGVWAGPPPHPRRPLSASVVSSQSLF
modifications: left off: a dimerising Fc or GST
notes: fusion protein between a KCNQ2-15b polypeptide comprising exons 13, 14 and 15b and GST
B2: KCNQ2-15by: polypeptide of SEQ ID NO: 4, novel KCNQ2 splice variant (protein, listed as Homo sapiens)
chain: MVQKSRNGGVYPGPSGEKKLKVGFVGLDPGAPDSTRDGALLIAGSEAPKRGSILSKPRAGGAGAGKPPKRNAFYRKLQNFLYNVLERPRGWAFIYHAYVFLLVFSCLVLSVFSTIKEYEKSSEGALYILEIVTIVVFGVEYFVRIWAAGCCCRYRGWRGRLKFARKPFCVIDIMVLIASIAVLAAGSQGNVFATSALRSLRFLQILRMIRMDRRGGTWKLLGSVVYAHSKELVTAWYIGFLCLILASFLVYLAEKGENDHFDTYADALWWGLITLTTIGYGDKYPQTWNGRLLAATFTLIGVSFFALPAGILGSGFALKVQEQHRQKHFEKRRNPAAGLIQSAWRFYATNLSRTDLHSTWQYYERTVTVPMYSSQTQTYGASRLIPPLNQLELLRNLKSKSGLAFRKDPPPEPSPSQKVSLKDRVFSSPRGVAAKGKGSPQAQTVRRSPSADQSLEDSPSKVPKSWSFGDRSRARQAFRIKGAASRQNSEEASLPGEDIVDDKSCPCEFVTEDLTPGLKVSIRAVCVMRFLVSKRKFKESLRPYDVMDVIEQYSAGHLDMLSRIKSLQSRQEPRLPVQQGTRTGWASGTKPTVAHGGSAGGVWAGPPPHPRRPLSASVVSSQSLF
B3: KCNQ2-15bx: polypeptide of SEQ ID NO: 2, novel KCNQ2 splice variant (protein, listed as Homo sapiens)
chain: MVQKSRNGGVYPGPSGEKKLKVGFVGLDPGAPDSTRDGALLIAGSEAPKRGSILSKPRAGGAGAGKPPKRNAFYRKLQNFLYNVLERPRGWAFIYHAYVFLLVFSCLVLSVFSTIKEYEKSSEGALYILEIVTIVVFGVEYFVRIWAAGCCCRYRGWRGRLKFARKPFCVIDIMVLIASIAVLAAGSQGNVFATSALRSLRFLQILRMIRMDRRGGTWKLLGSVVYAHSKELVTAWYIGFLCLILASFLVYLAEKGENDHFDTYADALWWGLITLTTIGYGDKYPQTWNGRLLAATFTLIGVSFFALPAGILGSGFALKVQEQHRQKHFEKRRNPAAGLIQSAWRFYATNLSRTDLHSTWQYYERTVTVPMYSSQTQTYGASRLIPPLNQLELLRNLKSKSGLAFRKDPPPEPSPSKGSPCRGPLCGCCPGRSSQKVSLKDRVFSSPRGVAAKGKGSPQAQTVRRSPSADQSLEDSPSKVPKSWSFGDRSRARQAFRIKGAASRQNSEEASLPGEDIVDDKSCPCEFVTEDLTPGLKVSIRAVCVMRFLVSKRKFKESLRPYDVMDVIEQYSAGHLDMLSRIKSLQSRQEPRLPVQQGTRTGWASGTKPTVAHGGSAGGVWAGPPPHPRRPLSASVVSSQSLF

Assays:
[1] = test system: GSK-3β and PKA; test: In vitro phosphorylation assay of GST-2E11 with recombinant GSK-3β kinase and PKA; type: biochemical; details: LiCl added to the kination mix; signal negatively correlated with LiCl concentration
Description: Expression and purification of the GST-2E11 fusion protein were performed as described above. Beads with bound fusion protein corresponding to 1 ml of bacterial clear lysate were washed three times in NETN and one time with HMK buffer without DTT (20 mM Tris-HCl [pH 7.5], 120 mM NaCl, 12 mM MgCl2). Beads were resuspended in 240 μl of reaction mix (24 μl of 10×HMK Buffer with 20 mM DTT, 40 units of Protein Kinase A Catalytic Subunit [PKA from bovine heart, 250 units/vial, Sigma] in 40 mM DTT, 5 μl of 24 mM ATP and 207 μl of distilled water) and incubated for 30 min at room temperature. Beads were then washed three times in NETN buffer and one time in GSK-3β reaction buffer (20 mM Tris-HCl [pH 7.5], 10 mM MgCl2, 5 mM DTT) (New England Biolabs). Beads were then resuspended in 50 μl of reaction mix (5 μl of 10×GSK-3β reaction buffer, 1 μl of [^32P]γATP 10 mCi/ml, 50 U of recombinant GSK-3β[New England Biolabs], and distilled water for a final volume of 50 μl) and incubated at room temperature for 30 min. After three washes in NETN buffer, phosphorylated proteins were boiled in 2×Sample Buffer (125 mM Tris-HCl [pH 6.8], 4% SDS, 20% glycerol, 1.4 M β-Mercapto ethanol), resolved by 10% SDS-PAGE, and visualized by autoradiography.
In this phosphorylation assay, non-radiolabeled polypeptides to be tested are incubated in the presence of GSK-3β, PKA and radioactive ATP. […]

[2] = target: T1, PP2A/Bγ; test: Solid phase overlay assay with radiolabeled GST-PPP2R2C probe; type: binding; details: 100 ng, 10 ng and 0.1 ng loaded; band intensity proportional to loaded quantity
Description: Solid phase overlay assays were performed by adapting the method described by Kaelin and collaborators (Kaelin et al., 1992, Cell, 70:351-364). 100 ng, 10 ng and 0.1 ng of GST and GST-2E11 recombinant proteins were resolved by 9% SDS-PAGE and were transferred by electroblotting onto nitrocellulose membrane (nitrocellulose transfer membrane Protran BA 83, Schleicher and Schuell). The membrane were then blocked in HBB buffer (25 mM Hepes-KOH [pH 7.7], 25 mM NaCl, 5 mM MgCl2) with 5% (w/v) non-fat dry milk, 1 mM DTT, 0.05% Nonidet P-40 for 1 hr at room temperature. The binding reaction was carried out at room temperature in Hyb75 buffer (20 mM Hepes [pH 7.7], 75 mM KCl, 2.5 mM MgCl2, 0.1 mM EDTA, 0.05% Nonidet P-40) with 1% (w/v) non-fat dry milk, 1 mM DTT, 1 mM PMSF and 3.5 10^5dpm of a [^32P]-γATP GST-PPP2R2C radiolabeled recombinant protein used as a probe. After 4.5 hr of incubation, the membrane was washed with Hyb75 buffer, 1 mM DTT, 1% (w/v) non-fat dry milk three times for 15 min at room temperature. The blots were analyzed by autoradiography.
This experiment was performed to validate the interaction between KCNQ2-15b polypeptides and PP2A/Bγ. In this experiment, the PP2A/Bγ subunit was radiolabeled but not the proteins present on the nitrocellulose membrane. […] Furthermore, the intensity of the bands was proportional to the quantity of loaded GST-2E11. […]

[3] = test system: Xenopus laevis oocytes; test: Electrophysiological analysis (two-electrode voltage clamp) of homotetrameric potassium channels; type: cell-based; details: 0.4 ng of DNA injected
Description: The animal was anesthetized and pieces of the ovary were surgically removed and individual oocytes were dissected away in a saline solution (ND96) containing 96 mM NaCl, 2 mM KCl, 2 mM CaCl2, 2 mM MgCl2 and 5 mM HEPES at pH 7.4. Stage V and VI oocytes were treated at room temperanre for 2 h with collagenase type 1A (1 mg/ml) in the presence of 0.2 mg/ml trypsin inhibitor in saline solution to discard follicular cells. […] DNA corresponding to KCNQ2, 3H2 and 3H9 K+ channels were subcloned in PEKO vector in order to generate the respective cRNAS. cRNA concentrations were measured by absorbance at 260 nm. cRNA solutions were injected (about 50 nL/oocyte) using a pressure microinjector (Inject+matic, Geneve). Oocytes were then kept for 2-6 days in ND96 solution supplemented wirn 50 U/mL penicillin and 50 U/mL streptomycin.
In a 0.3 mL perfusion chamber, a single oocyte was impaled with two standard glass microelectrode (0.5-2 Mohm resistance) filled with 3M KCl and maintained under voltage clamp using a Dagan TEV200 amplifier system, USA. Electrical stimulations, data acquisition and analyses were performed using pClamp software (Axon Instruments, USA). […]

Row | Molecule | intensity of the M-current generated by the homotetrameric potassium channel [3] | further results
1 | [Cl-].[Li+] [LiCl] | – | intensity of the phosphorylated GST-2E11 band [1]: decreased
2 | B1 | – | interaction with PP2A/Bγ (band by autoradiography) [2]: interacts
3 | B2 | about 700 nA | –
4 | B3 | about 800 nA | –
